Source: patent US10500249B2, “Compositions and methods for preventing or treating diseases, conditions, or processes characterized by aberrant fibroblast proliferation and extracellular matrix deposition” (MOERAE MATRIX, INC., priority 2014, dated 2019)

Assays:
Test in all cases: Kinase Profiling Assay
Format in all cases: biochemical
Conditions in all cases: 100 μM
[1] = target: Plk3 (h) (Homo sapiens, UniProt Q9H4B4)
Method in brief: (§1)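 Activity remaining relative to an uninhibited control was determined by scintillation counting of labeled substrate bound to a negatively charged filter. Radiolabeled phosphate came from ATP; the substrate carried positive charge. Duplicate measurements, within a 266-kinase human panel.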

[2] = target: Rsk2 (h) (Homo sapiens, UniProt P51812)
Chain of Rsk2 (h) (P51812 whole entry): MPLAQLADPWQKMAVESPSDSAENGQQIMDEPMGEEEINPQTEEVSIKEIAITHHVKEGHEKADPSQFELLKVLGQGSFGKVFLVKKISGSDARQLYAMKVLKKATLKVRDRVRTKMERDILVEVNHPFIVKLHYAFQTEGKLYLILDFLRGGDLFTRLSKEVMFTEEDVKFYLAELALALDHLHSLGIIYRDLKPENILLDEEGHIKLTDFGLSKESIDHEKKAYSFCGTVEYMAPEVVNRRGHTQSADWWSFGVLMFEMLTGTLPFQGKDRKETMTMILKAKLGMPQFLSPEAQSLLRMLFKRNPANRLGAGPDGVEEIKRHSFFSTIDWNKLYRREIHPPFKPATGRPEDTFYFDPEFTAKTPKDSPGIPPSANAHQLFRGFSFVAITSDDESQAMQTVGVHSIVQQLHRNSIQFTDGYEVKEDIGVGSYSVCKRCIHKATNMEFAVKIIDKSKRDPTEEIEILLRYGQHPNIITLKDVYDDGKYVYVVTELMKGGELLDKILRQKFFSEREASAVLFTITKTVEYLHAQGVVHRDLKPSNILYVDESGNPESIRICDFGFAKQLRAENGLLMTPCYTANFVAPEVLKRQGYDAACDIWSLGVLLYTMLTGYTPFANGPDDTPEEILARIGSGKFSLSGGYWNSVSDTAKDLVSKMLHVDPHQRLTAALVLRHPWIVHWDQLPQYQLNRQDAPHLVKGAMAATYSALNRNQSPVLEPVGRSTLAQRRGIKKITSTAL
Method in brief: as §1

[3] = target: T1, CDK6/cyclinD3 (h) (Homo sapiens, UniProt Q00534)
T1 construct: purchased Millipore
T1 sequence (Q00534 whole entry): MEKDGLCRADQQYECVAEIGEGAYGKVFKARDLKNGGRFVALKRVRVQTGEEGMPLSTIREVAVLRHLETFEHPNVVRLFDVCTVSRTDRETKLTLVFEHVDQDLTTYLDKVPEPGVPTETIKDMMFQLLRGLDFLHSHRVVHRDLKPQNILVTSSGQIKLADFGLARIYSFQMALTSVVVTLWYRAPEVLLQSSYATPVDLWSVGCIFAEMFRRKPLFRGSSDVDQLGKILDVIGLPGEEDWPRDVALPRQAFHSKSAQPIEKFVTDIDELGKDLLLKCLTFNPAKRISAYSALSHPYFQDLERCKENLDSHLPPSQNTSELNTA
T1 sequence (P30281 whole entry partner): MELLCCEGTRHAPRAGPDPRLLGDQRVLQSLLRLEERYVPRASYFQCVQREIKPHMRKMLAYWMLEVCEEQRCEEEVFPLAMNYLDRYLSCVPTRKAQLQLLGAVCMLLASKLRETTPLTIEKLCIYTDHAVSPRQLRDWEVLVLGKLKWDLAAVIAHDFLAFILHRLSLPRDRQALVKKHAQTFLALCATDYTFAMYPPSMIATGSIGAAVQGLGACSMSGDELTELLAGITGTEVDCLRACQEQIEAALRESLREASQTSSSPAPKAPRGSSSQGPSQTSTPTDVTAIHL
Method in brief: as §1

[4] = target: Ron (h) (Homo sapiens, UniProt Q04912)
Method in brief: as §1

[5] = target: T2, SAPK3 (h) (Homo sapiens, UniProt P53778)
T2 sequence (P53778 1-367): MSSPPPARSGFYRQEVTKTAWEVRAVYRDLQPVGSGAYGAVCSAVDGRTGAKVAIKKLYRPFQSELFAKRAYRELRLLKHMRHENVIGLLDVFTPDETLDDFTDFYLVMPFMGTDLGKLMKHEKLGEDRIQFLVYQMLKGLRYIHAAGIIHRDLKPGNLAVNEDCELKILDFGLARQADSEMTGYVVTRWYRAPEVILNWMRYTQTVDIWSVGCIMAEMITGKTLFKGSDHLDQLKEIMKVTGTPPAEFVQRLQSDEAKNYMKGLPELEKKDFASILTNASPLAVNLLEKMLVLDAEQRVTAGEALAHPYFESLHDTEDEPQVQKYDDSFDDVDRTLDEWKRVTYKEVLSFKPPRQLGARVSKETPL
Method in brief: as §1

[6] = target: T3, NEK6 (h) (Homo sapiens, UniProt Q9HC98)
T3 construct: purchased Millipore
T3 sequence (Q9HC98 whole entry): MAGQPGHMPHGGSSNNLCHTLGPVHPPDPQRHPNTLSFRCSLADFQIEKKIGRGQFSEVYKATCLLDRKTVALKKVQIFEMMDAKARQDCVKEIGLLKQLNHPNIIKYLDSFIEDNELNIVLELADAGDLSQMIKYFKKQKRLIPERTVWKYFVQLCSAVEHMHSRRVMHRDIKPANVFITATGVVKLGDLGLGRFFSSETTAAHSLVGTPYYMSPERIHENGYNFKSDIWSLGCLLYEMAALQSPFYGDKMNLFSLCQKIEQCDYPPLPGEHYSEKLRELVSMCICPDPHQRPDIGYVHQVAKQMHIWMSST
Method in brief: as §1

[7] = target: BTK(R28H) (h) (Homo sapiens, UniProt Q06187, R28H)
Chain of BTK(R28H) (h) (Q06187 whole entry R28H): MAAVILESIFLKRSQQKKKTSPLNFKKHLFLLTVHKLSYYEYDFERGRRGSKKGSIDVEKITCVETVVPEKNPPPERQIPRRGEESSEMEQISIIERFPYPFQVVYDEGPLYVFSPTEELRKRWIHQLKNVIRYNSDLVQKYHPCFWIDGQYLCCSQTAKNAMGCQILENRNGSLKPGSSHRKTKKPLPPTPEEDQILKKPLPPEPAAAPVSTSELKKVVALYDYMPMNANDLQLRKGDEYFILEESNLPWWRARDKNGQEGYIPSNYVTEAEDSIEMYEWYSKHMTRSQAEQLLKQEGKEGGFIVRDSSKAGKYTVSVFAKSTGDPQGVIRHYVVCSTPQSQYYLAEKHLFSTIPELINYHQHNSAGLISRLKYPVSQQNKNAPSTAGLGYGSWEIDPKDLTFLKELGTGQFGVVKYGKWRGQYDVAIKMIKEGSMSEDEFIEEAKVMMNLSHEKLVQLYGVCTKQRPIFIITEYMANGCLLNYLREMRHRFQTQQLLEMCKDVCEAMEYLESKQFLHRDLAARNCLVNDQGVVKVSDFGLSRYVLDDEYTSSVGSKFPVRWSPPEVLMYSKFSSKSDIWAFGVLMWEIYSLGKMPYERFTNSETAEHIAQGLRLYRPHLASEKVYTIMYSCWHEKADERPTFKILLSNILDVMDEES
Method in brief: as §1

[8] = target: T4, ASK1 (h) (Homo sapiens, UniProt Q99683)
T4 sequence (Q99683 1-1374): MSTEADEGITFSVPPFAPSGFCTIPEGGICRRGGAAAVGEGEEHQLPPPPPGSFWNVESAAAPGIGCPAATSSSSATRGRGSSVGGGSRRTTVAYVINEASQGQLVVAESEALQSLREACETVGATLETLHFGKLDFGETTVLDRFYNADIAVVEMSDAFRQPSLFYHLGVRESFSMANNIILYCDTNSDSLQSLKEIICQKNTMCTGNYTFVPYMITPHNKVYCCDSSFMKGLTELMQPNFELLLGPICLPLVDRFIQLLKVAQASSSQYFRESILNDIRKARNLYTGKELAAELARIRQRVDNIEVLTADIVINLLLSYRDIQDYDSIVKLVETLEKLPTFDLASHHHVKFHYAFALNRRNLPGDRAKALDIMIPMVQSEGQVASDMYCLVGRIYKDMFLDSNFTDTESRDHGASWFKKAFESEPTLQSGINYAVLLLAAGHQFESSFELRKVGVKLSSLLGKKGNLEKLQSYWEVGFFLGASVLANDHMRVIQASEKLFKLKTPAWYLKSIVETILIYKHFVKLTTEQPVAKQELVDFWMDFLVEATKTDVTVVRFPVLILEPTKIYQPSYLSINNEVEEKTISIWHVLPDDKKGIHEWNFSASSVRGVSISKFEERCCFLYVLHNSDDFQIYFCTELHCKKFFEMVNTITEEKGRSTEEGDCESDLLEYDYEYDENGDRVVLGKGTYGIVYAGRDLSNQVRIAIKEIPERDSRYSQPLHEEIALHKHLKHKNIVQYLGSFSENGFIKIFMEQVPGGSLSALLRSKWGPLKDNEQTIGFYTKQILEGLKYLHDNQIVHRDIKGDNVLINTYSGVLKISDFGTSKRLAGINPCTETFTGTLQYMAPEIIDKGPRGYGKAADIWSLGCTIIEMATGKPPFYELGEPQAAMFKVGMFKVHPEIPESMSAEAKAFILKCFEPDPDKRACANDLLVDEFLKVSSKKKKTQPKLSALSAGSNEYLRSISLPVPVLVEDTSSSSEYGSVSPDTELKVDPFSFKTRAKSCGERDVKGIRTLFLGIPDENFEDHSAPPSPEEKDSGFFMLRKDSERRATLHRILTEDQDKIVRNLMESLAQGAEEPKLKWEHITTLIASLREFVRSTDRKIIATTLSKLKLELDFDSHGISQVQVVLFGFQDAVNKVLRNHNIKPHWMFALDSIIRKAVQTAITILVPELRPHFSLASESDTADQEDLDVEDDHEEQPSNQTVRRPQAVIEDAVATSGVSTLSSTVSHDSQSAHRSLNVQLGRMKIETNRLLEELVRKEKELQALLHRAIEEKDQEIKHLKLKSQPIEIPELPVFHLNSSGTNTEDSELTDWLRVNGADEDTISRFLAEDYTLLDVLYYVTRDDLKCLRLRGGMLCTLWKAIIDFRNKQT
Method in brief: as §1

[9] = target: T5, Pim-3 (h) (Homo sapiens, UniProt Q86V86)
T5 construct: purchased Millipore
Method in brief: as §1

[10] = target: TrkB (h) (Homo sapiens, UniProt Q16620)
Method in brief: as §1

[11] = target: Flt4 (h) (Homo sapiens, UniProt P35916)
Method in brief: as §1

[12] = target: T6, MST3 (h) (Homo sapiens, UniProt Q9Y6E0)
T6 construct: purchased Millipore
T6 sequence (Q9Y6E0 whole entry): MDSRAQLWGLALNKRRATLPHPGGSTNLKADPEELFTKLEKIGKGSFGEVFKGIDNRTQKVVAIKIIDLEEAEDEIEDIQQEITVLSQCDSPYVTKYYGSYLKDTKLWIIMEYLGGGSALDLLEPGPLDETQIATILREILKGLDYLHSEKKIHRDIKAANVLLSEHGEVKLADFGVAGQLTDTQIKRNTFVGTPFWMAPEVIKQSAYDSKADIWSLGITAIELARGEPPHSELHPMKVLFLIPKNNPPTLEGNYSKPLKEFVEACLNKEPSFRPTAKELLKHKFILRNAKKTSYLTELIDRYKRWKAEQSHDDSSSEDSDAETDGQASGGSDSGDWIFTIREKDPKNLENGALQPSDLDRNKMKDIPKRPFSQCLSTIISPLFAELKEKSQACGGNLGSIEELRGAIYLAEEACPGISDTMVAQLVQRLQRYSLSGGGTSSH
Method in brief: as §1

[13] = target: T7, PAK5 (h) (Homo sapiens, UniProt Q9P286)
T7 construct: purchased Millipore
T7 sequence (Q9P286 whole entry): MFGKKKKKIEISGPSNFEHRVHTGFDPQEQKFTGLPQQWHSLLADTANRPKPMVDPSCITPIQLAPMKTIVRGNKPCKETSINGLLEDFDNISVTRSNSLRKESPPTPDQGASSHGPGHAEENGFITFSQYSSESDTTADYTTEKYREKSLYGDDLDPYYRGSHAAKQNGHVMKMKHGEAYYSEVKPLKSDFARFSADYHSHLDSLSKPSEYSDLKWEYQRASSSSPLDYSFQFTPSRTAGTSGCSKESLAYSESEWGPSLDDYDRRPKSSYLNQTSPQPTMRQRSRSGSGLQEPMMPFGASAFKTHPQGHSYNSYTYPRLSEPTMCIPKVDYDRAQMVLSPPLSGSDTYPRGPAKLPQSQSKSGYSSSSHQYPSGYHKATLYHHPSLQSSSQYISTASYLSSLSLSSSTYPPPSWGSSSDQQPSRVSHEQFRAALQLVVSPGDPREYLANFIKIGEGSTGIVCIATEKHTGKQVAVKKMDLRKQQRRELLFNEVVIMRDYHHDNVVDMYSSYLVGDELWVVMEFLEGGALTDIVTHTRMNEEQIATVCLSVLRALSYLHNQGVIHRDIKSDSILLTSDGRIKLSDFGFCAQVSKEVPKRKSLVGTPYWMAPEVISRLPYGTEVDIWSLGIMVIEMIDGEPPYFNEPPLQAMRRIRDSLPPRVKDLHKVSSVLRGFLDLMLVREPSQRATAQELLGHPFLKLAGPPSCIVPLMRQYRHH
Method in brief: as §1

Chain of Plk3 (h) (Q9H4B4 whole entry): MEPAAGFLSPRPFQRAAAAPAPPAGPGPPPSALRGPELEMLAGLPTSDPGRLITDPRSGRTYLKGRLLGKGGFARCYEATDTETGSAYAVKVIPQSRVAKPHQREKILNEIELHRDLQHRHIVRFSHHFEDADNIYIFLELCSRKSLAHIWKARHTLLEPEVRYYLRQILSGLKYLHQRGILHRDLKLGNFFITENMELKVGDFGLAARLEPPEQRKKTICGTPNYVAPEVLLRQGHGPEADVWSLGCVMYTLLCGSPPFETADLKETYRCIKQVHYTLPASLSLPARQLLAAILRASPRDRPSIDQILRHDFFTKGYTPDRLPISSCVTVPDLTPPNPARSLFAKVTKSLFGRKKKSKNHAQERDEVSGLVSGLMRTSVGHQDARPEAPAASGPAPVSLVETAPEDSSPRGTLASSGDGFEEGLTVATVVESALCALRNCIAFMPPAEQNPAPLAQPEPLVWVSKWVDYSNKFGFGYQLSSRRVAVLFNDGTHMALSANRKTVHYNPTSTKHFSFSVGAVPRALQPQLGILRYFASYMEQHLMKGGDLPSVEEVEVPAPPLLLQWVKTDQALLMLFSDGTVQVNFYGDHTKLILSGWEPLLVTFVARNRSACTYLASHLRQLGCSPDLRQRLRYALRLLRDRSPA

Sequence | % activity [1] | % activity [2] | % activity [3] | % activity [4] | % activity [5] | % activity [6] | % activity [7] | % activity [8] | % activity [9] | % activity [10] | % activity [11] | % activity [12] | % activity [13]
KAFAKLAARLYRKALARQLGVAA [MMI-0400] | 129% | 38% | 85% | 79% | 79% | 85% | 24% | 69% | 80% | 8% | 89% | 36% | 
YARAAARQARAKALNRQLGVA (Mammalian) [MMI-0200] |  | 101% | 100% | 120% | 97% | 98% |  | 101% | 94% | 7% |  | 95% | 100%
HRRIKAWLKKIKALARQLGVAA (Mammalian) [MMI-0500] | 122% | 14% | 23% | 46% | 24% | 49% | 10% | −4% | 37% | 12% | 73% | 4% | 125%
FAKLAARLYRKALARQLGVAA [MMI-0300] | 127% | 51% | 86% | 93% | 84% | 82% | 74% | 80% | 80% | 5% | 83% | 45% | 110%
